One molecule from article PMC4148193, “Chromatin Insulator Factors Involved in Long-Range DNA Interactions and Their Role in the Folding of the Drosophila Genome” (PLoS Genetics, 2014) can be followed below.

The target in one data set is T1, BEAF32 (BEAF32B);CP190 (Drosophila;Drosophila, UniProt Q94513;Q24478 1-282;1-1096, |).
T1 sequence 1: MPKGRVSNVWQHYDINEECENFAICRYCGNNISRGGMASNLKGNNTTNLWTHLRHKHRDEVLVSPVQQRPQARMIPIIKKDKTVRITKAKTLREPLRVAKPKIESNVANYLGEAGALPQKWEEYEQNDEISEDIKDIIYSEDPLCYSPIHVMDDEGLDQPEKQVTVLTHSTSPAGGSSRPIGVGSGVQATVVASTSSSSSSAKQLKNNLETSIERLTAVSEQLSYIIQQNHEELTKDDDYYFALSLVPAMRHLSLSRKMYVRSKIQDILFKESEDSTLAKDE
T1 sequence 2: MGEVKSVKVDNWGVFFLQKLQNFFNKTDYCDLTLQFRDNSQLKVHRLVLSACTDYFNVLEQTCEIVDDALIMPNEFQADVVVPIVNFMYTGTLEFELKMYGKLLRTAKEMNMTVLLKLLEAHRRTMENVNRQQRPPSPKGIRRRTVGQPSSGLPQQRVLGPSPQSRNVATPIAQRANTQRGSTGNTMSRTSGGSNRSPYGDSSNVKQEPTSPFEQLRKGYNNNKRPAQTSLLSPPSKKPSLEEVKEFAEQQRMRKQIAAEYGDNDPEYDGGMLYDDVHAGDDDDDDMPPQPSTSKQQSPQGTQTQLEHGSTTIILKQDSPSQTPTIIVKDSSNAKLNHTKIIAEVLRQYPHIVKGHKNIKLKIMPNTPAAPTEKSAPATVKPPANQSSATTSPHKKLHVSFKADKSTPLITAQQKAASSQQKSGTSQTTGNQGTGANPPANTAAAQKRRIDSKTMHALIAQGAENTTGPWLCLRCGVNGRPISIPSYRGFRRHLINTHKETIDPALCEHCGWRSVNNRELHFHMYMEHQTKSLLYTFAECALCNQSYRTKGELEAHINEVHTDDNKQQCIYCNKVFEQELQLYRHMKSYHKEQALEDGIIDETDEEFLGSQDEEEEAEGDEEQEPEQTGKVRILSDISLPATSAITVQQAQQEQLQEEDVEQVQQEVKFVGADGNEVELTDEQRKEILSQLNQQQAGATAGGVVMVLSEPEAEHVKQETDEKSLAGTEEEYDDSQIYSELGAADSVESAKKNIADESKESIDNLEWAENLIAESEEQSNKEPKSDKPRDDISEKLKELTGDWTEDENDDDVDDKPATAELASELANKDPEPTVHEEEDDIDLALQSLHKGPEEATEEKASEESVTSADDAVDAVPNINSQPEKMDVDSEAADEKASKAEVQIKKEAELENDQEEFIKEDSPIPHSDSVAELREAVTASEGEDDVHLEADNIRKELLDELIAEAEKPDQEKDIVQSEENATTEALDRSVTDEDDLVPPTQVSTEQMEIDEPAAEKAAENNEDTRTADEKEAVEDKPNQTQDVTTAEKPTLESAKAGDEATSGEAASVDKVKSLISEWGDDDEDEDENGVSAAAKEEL
Nature of the data set: FCS/PIE-FCCS; 400 nM BEAF32, 50 nM CP190; cross-correlation 18±6%, 65±22% of complexes bridged; FA/FCS: 30 mM Tris/HCl pH 7.5, 100 mM NaCl, 20 uM ZnSO4, 5 mM mercaptoethanol, 0.01 mg/ml BSA, 0.004% Tween20, 2.5 nM DNA; EMSA: 150 mM NaCl, 30 mM Tris/HCl pH. As to conditions: protein: recombinant;recombinant; tags: N-term MBP; C-term 6xHis;N-term 6xHis; blunt.

The target in a further data set is T2, Chromator (Drosophila, UniProt Q86BS3 1-926).
T2 sequence: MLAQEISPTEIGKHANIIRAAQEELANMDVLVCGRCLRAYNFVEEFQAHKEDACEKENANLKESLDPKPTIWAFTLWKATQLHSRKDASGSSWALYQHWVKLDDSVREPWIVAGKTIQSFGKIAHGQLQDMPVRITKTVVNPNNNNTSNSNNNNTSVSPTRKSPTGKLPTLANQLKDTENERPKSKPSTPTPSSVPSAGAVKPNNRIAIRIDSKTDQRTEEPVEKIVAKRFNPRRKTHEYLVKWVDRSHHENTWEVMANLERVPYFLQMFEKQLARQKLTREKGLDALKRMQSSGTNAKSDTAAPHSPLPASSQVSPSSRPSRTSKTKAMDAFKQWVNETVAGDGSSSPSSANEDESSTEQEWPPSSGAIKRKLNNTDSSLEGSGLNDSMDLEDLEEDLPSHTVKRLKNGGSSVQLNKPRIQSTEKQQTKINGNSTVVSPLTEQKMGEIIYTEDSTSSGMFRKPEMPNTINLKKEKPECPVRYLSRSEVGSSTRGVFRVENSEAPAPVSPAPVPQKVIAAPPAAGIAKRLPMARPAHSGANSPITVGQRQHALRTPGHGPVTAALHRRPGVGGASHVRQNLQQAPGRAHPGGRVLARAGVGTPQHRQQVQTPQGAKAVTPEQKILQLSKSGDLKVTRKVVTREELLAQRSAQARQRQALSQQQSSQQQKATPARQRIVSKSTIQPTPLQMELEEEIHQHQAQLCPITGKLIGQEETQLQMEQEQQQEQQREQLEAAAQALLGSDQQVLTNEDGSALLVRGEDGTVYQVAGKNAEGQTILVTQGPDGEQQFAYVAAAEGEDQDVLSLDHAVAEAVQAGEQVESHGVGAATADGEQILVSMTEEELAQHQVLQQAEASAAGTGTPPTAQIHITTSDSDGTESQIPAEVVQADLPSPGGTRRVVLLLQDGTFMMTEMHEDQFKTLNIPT
Nature of the data set: competition; unlabeled DNAS vs 2.5 nM Cy3B-DNAS, 638 nM Chromator; FA/FCS: 30 mM Tris/HCl pH 7.5, 100 mM NaCl, 20 uM ZnSO4, 5 mM mercaptoethanol, 0.01 mg/ml BSA, 0.004% Tween20, 2.5 nM DNA; EMSA: 150 mM NaCl, 30 mM Tris/HCl pH. As to conditions: protein: recombinant; tags: N-term 6xHis; blunt. For orientation: Mobility shift assays separate free from complexed probe on a gel.

Another data set concerns the target T3, CP190 (Drosophila, UniProt Q24478 1-1096).
T3 sequence: T1 sequence 2
Nature of the data set: competition; unlabeled DNAS vs 2.5 nM Cy3B-DNAS, 200 nM CP190; FA/FCS: 30 mM Tris/HCl pH 7.5, 100 mM NaCl, 20 uM ZnSO4, 5 mM mercaptoethanol, 0.01 mg/ml BSA, 0.004% Tween20, 2.5 nM DNA; EMSA: 150 mM NaCl, 30 mM Tris/HCl pH. As to conditions: protein: recombinant; tags: N-term 6xHis; blunt.

B1: DNAS (dsDNA)
DNA 1: AGAAGTCAGCGCGATAGCATCGATATTTTCGTGACACGCTTGTCATCCGATAGGTAGT
DNA 2: ACTACCTATCGGATGACAAGCGTGTCACGAAAATATCGATGCTATCGCGCTGACTTCT
A word on the Ki: it is a measure of affinity in units of concentration, obtained from inhibition or displacement. With B1, the binding result with BEAF32 (BEAF32B);CP190 is “binds”. Also, the values for the Ki with Chromator and with CP190 were 514 ± 360 nM and 17 ± 4 nM, respectively.
